{
  "source": "paper PMC10926635",
  "about": "“Membrane-associated RING-CH 7 inhibits stem-like capacities of bladder cancer cells by interacting with nucleotide-binding oligomerization domain containing 1” (Cell & Bioscience, 2024)",
  "molecular_target": "T1, HA-NOD1, purified protein (UniProt Q9Y239-1 1-953)",
  "T1 construct": "also called purified NOD1 protein; source: purified by Hangzhou Jingjie Biotechnology Co., Ltd",
  "T1 sequence (looked up)": "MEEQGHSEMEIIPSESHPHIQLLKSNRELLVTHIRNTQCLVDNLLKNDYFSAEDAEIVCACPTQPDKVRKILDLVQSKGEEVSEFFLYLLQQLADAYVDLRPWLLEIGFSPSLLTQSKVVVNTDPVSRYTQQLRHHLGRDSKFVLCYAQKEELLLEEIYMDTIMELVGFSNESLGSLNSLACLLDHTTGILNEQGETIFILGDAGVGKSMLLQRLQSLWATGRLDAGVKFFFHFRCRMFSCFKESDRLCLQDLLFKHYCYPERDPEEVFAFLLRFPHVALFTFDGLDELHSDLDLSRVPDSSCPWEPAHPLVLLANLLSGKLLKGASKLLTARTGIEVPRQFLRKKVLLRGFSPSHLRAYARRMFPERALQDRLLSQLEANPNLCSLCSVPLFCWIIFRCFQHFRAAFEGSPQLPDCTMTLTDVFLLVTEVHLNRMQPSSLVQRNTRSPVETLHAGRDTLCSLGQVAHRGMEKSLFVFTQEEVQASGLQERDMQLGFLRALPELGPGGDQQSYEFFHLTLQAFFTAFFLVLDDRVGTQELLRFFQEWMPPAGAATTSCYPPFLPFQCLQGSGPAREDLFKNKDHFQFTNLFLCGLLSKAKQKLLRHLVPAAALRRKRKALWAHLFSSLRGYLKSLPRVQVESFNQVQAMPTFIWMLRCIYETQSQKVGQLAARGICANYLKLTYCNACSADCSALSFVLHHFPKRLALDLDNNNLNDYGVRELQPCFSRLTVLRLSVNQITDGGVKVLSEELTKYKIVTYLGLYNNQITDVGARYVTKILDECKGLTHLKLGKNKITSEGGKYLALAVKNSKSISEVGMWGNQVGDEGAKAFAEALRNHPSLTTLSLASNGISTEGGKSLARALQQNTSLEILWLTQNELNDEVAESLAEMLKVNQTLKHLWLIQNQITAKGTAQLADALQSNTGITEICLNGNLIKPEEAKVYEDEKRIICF",
  "test": "co-IP; purified Flag-MARCH7 and HA-NOD1 proteins mixed; co-IP as for the cell lysates",
  "details": "both partners purified",
  "data": [
    {"binder": "Flag-MARCH7-WT, purified protein (enzyme, UniProt Q9H992-1 1-704, looked up, Membrane-associated RING-CH 7 (MARCH7); also called purified MARCH7 protein; source: purified by Hangzhou Jingjie Biotechnology Co., Ltd) MESKPSRIPRRISVQPSSSLSARMMSGSRGSSLNDTYHSRDSSFRLDSEYQSTSASASASPFQSAWYSESEITQGARSRSQNQQRDHDSKRPKLSCTNCTTSAGRNVGNGLNTLSDSSWRHSQVPRSSSMVLGSFGTDLMRERRDLERRTDSSISNLMDYSHRSGDFTTSSYVQDRVPSYSQGARPKENSMSTLQLNTSSTNHQLPSEHQTILSSRDSRNSLRSNFSSRESESSRSNTQPGFSYSSSRDEAPIISNSERVVSSQRPFQESSDNEGRRTTRRLLSRIASSMSSTFFSRRSSQDSLNTRSLNSENSYVSPRILTASQSRSNVPSASEVPDNRASEASQGFRFLRRRWGLSSLSHNHSSESDSENFNQESEGRNTGPWLSSSLRNRCTPLFSRRRREGRDESSRIPTSDTSSRSHIFRRESNEVVHLEAQNDPLGAAANRPQASAASSSATTGGSTSDSAQGGRNTGISGILPGSLFRFAVPPALGSNLTDNVMITVDIIPSGWNSADGKSDKTKSAPSRDPERLQKIKESLLLEDSEEEEGDLCRICQMAAASSSNLLIEPCKCTGSLQYVHQDCMKKWLQAKINSGSSLEAVTTCELCKEKLELNLEDFDIHELHRAHANEQAEYEFISSGLYLVVLLHLCEQSFSDMMGNTNEPSTRVRFINLARTLQAHMEDLETSEDDSEEDGDHNRTFDIA", "values": [
      {"measurement": "binding result", "result": "binds"}
    ]}
  ]
}
